In US20200283523A1 (WUXI BIOLOGICS IRELAND, published 2020):

Legend:
[1] = target: T1, cynomolgus CD19 (cynomolgus monkey, UniProt A0A2K5W8L9 20-557); experiment: flow cytometry on CHO-K1 cells expressing cynomolgus CD19 (WBP701.CHO-K1.cpro1.FL.C9)
T1 construct: whole, on cells; also called monkey CD19; WBP701.CHO-K1.cpro1.FL.C9 cells
T1 sequence: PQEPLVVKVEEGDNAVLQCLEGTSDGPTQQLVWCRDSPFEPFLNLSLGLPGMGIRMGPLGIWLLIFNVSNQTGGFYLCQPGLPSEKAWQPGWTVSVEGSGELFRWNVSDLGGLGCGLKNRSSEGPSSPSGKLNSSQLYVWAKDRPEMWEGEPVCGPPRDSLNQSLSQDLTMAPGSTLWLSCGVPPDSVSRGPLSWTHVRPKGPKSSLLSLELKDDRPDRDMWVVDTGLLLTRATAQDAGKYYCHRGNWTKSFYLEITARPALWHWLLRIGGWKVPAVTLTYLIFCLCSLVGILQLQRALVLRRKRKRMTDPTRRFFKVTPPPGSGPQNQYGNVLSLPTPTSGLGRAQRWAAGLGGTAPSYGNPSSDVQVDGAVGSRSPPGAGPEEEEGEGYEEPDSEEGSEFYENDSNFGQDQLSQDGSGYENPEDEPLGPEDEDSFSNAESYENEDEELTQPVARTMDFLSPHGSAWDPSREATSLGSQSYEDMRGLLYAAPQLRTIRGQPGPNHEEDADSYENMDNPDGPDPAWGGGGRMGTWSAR
Procedure: Binding of the CD3×CD19 bispecific antibody to cynomoglus CD19 target protein expressed on CHOK1 cells was determined by flow cytometry analysis. In brief, cynomoglus CD19 over-expressed stable cell line (WBP701.CHOK1.cPro1.C9, WuXi Biologics) were harvested with trypsin and diluted to 1×10⁶ cells/ml in 1% BSA/1×PBS. 1×10⁵ cells/well (100 ul) were added to each well of a 96-well U-plate (Corning, #3799) and centrifuged at 1500 rpm (Eppendorf, #5810R) for 5 minutes before removing the supernatant. Antibodies serially diluted in 1% BSA/1×PBS were added at 100 µl/well to the pelleted cells and incubated at 4° C. for 1 hour. A non-related hIgG4 antibody was used as an isotype control. […] Pelleted cells were resuspended in 100 ul/well Fluorescence-labeled anti-human IgG Fc antibody (Jackson, #109-115-098) 1:150 diluted in 1% BSA/1×PBS for 30 minutes at 4° C. in the dark. […] After the final wash, cells were resuspended in 80 ul 1% BSA/1×PBS and fluorescence values were measured with a FACS Canto II cytometer (BD Biosciences). The amount of cell surface bound anti-CD19&CD3 bispecific antibody was assessed by measuring the mean fluorescence (MFI). The FACS raw data were analyzed by FlowJo software, wells containing no antibody or secondary antibody only were used to establish background fluorescence. […]

[2] = target: T2, human CD3 (human, UniProt P07766 23-207); experiment: flow cytometry on Jurkat cells
T2 construct: whole, on cells; On cells CD3 stands as the full CD3/TCR complex; also called CD3 on Jurkat cells
T2 sequence (P07766 23-207): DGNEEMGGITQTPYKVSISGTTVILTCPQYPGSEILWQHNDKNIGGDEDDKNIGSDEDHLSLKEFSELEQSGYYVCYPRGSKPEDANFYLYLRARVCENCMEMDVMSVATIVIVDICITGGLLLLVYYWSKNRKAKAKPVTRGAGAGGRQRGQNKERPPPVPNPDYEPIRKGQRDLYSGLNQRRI

- EC50 [1]: 26 nM
- EC50 [2]: 47 nM
B1: W3438-T3U4.E17-1.uIgG4.SP (bispecific antibody)
light 1: DIVMTQSPDSLAVSLGERATINCKSSQSLLNSRTRKNYLAWYQQKPGQPPKLLIYWASTRQSGVPDRFSGSGSGTDFTLTISSLQAEDVAVYYCTQSHTLRTFGGGTKVEIKPDIQNPDPAVYQLRDSKSSDKSVCLFTDFDSQTQVSQSKDSDVYITDKCVLDMRSMDFKSNSAVAWSQKSDFACANAFQNSIIPEDTFFPSPESS
heavy 1: QVQLVQSGAEVKKPGSSVKVSCKASGFAFTDYYIHWVRQAPGQGLEWMGWISPGNVNTKYNENFKGRVTITADKSTSTAYMELSSLRSEDTAVYYCARDGYSLYYFDYWGQGTLVTVLEDLKNVFPPEVAVFEPSEAEISHTQKATLVCLATGFYPDHVELSWWVNGKEVHSGVCTDPQPLKEQPALQDSRYALSSRLRVSATFWQNPRNHFRCQVQFYGLSENDEWTQDRAKPVTQIVSAEAWGRYGPPCPPCPAPEFLGGPSVFLFPPKPKDTLMISRTPEVTCVVVDVSQEDPEVQFNWYVDGVEVHNAKTKPREEQFNSTYRVVSVLTVLHQDWLNGKEYKCKVSNKGLPSSIEKTISKAKGQPREPQVYTLPPCQEEMTKNQVSLWCLVKGFYPSDIAVEWESNGQPENNYKTTPPVLDSDGSFFLYSRLTVDKSRWQEGNVFSCSVMHEALHNHYTQKSLSLSLGK
light 2: DIQLTQSPSFLSASVGDRVTITCSASSTVNYMHWYQQKPGKAPKLLIYSTSNLASGVPSRFSGSGSGTEFTLTISSLQPEDFATYYCHQWSSYPYTFGQGTKLEIKRTVAAPSVFIFPPSDEQLKSGTASVVCLLNNFYPREAKVQWKVDNALQSGNSQESVTEQDSKDSTYSLSSTLTLSKADYEKHKVYACEVTHQGLSSPVTKSFNRGEC
heavy 2: QMQLVQSGPEVKKPGTSVKVSCKASGYAFTSYNMYWVRQARGQRLEWIGYIDPYNGDTTYNQKFKGRVTITRDMSTSTAYMELSSLRSEDTAVYYCLTTAYAMDYWGQGTLVTVSSASTKGPSVFPLAPCSRSTSESTAALGCLVKDYFPEPVTVSWNSGALTSGVHTFPAVLQSSGLYSLSSVVTVPSSSLGTKTYTCNVDHKPSNTKVDKRVESKYGPPCPPCPAPEFLGGPSVFLFPPKPKDTLMISRTPEVTCVVVDVSQEDPEVQFNWYVDGVEVHNAKTKPREEQFNSTYRVVSVLTVLHQDWLNGKEYKCKVSNKGLPSSIEKTISKAKGQPREPQVCTLPPSQEEMTKNQVSLSCAVKGFYPSDIAVEWESNGQPENNYKTTPPVLDSDGSFFLVSRLTVDKSRWQEGNVFSCSVMHEALHNHYTQKSLSLSLGK
notes: Bispecific, bivalent: one anti-CD3 arm with TCR constant domains and one native anti-CD19 Fab arm, IgG4 S228P Fc with knobs-into-holes; also called WBP3438; CD3×CD19 bispecific antibody; copies: 1 + 1 + 1 + 1
